This note sets out measurements from publication PMC3137634, “Concurrent Proinflammatory and Apoptotic Activity of a Helicobacter pylori Protein (HP986) Points to Its Role in Chronic Persistence” (PLoS ONE, 2011).

The target in this assay is T1, recombinant HP986 (Helicobacter pylori, UniProt O25636 1-237).
T1 construct: HP986 (HP0986), protein of unknown function from the plasticity zone of Helicobacter pylori; PCR product spanning 711 bp cloned at XhoI/HindIII of pRSETA; about 29 kDa; 711 bp would be 237 codons with the stop or without; also called rHP986; HP0986; source: E. coli BL21 (DE3), purified (Ni2+-NTA, size exclusion chromatography)
T1 sequence: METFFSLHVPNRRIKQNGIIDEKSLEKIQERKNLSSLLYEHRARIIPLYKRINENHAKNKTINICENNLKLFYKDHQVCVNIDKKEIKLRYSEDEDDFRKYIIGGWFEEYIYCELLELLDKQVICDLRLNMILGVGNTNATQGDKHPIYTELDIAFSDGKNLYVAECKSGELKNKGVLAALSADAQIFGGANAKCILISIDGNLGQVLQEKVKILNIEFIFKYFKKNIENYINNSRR
Put plainly: SPR; BIAcore 3000; human TNFR1/Fc amine-coupled to a CM5 chip up to 150 RU; rHP986 at 100, 400, 800 and 1200 nM in PBS, 30 µl/min; 1:1 Langmuir model. As to conditions: both partners purified. For orientation: In SPR one partner is held on a chip, and binding of the other changes the refractive index at the surface.

B1: Human TNFR1/Fc (Fc fusion, UniProt P19438 30-211, looked up)
chain: LVPHLGDREKRDSVCPQGKYIHPQNNSICCTKCHKGTYLYNDCPGPGQDTDCRECESGSFTASENHLRHCLSCSKCRKEMGQVEISSCTVDRDTVCGCRKNQYRHYWSENLFQCFNCSLCLNGTVHLSCQEKQNTVCTCHAGFFLRENECVSCSNCKKSLECTKLCLPQIENVKGTEDSGTT
notes: soluble human TNFR1 (tumor necrosis factor receptor 1) fused to Fc; Commercial TNFR1/Fc chimeras usually hold the extracellular domain joined to human IgG1 Fc at the C-terminus; also called soluble humanTNFR1; hu TNFR1; source: bought: Sigma, USA
The koff is the first-order rate constant of dissociation. One may read the kon as the second-order rate constant of association. B1: the koff came out at 0.000908 s⁻¹ and the kon was 12600 M⁻¹ s⁻¹.
